Holding throughout (assay): Kinase Profiling Assay
Common to all, as to format: biochemical
Common to all, as to settings: 100 μM peptide

In assay [1] the target is T1, ARK5(h) (Homo sapiens, UniProt O60285).
T1 sequence (O60285 1-661): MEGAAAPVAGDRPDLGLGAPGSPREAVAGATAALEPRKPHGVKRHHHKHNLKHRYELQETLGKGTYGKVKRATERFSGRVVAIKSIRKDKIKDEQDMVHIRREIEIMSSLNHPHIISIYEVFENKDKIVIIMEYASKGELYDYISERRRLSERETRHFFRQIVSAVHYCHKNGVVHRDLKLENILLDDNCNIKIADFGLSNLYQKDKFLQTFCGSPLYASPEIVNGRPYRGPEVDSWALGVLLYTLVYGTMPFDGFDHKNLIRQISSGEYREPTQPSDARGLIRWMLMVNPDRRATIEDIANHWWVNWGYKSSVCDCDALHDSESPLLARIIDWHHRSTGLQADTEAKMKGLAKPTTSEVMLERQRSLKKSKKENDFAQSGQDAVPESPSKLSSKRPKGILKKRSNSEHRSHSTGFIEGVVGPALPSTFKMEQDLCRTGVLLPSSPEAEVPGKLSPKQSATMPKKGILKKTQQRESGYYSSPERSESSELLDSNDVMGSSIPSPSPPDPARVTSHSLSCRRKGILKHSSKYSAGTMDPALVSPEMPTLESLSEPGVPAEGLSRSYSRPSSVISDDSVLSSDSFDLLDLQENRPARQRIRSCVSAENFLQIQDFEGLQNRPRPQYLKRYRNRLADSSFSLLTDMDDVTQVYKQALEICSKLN
Put shortly: (§1)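 Selectivity profiling: MK2-targeting peptides tested on 266 human kinases. All activity determinations done in duplicate.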

Assay [2] concerns the target CDK2/cyclinA(h) (Homo sapiens, UniProt P24941). Put shortly:
as §1

Assay [3] has as its target CK1δ(h) (Homo sapiens, UniProt P48730). The procedure, abridged: as §1
The target of assay [4] is EGFR(T790M,L858R)(h) (Homo sapiens, UniProt P00533, L858R/T790M). The procedure, abridged:
as §1

Assay [5] has as its target FGFR2(h) (Homo sapiens, UniProt P21802). Put shortly: as §1
The target in assay [6] is Flt1(h) (Homo sapiens, UniProt P17948). Put shortly:
as §1

Assay [7] concerns the target T2, GSK3α(h) (Homo sapiens, UniProt P49840).
T2 construct: purchased Millipore
Put shortly: as §1

The target in assay [8] is T3, Hck(h) (Homo sapiens, UniProt P08631).
T3 construct: purchased Millipore
The procedure, abridged: as §1

Assay [9] has as its target T4, IGF-1R(h), activated (Homo sapiens, UniProt P08069).
T4 construct: purchased Millipore
Put shortly: as §1

Assay [10] addresses T5, IRAK1(h) (Homo sapiens, UniProt P51617).
T5 construct: purchased Millipore
The procedure, abridged:
as §1

Assay [11] addresses JNK2α2(h) (Homo sapiens, UniProt P45984). Put shortly: as §1
The target in assay [12] is PKCδ(h) (Homo sapiens, UniProt Q05655). Put shortly:
as §1

Assay [13] deals with T6, Ret(h) (Homo sapiens, UniProt P07949).
T6 construct: purchased Millipore (IC50 Profiler Express service)
The procedure, abridged: as §1

For assay [14], the target named is SAPK2a(T106M)(h) (Homo sapiens, UniProt Q16539, T106M). The procedure, abridged:
as §1

Assay [15] concerns the target SRPK1(h) (Homo sapiens, UniProt Q96SB4). The procedure, abridged:
as §1

Assay [16] has as its target TrkA(h) (Homo sapiens, UniProt P04629). The procedure, abridged: as §1
Assay [17] has as its target mTOR/FKBP12(h) (Homo sapiens, UniProt P42345). Put shortly: as §1
The target in assay [18] is T7, Bmx(h) (Homo sapiens, UniProt P51813).
T7 sequence (P51813 1-675): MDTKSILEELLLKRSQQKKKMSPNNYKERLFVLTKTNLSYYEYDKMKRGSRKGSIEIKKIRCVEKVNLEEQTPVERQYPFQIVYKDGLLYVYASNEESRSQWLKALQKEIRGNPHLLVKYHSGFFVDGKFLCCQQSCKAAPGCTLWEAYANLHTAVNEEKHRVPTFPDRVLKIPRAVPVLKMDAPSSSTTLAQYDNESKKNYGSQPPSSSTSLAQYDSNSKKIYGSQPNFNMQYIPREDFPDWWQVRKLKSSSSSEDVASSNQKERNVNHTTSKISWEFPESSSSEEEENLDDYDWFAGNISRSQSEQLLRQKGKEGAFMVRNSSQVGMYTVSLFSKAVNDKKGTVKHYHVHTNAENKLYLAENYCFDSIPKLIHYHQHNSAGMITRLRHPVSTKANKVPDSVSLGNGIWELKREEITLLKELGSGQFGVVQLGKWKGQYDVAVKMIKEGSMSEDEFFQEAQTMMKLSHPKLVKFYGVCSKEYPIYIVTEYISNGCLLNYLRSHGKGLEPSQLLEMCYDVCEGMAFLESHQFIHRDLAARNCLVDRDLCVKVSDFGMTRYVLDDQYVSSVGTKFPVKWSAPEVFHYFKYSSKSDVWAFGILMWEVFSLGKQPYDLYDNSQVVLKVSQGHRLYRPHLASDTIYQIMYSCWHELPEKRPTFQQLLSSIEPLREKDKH
Put shortly:
as §1

T2 sequence (P49840 whole entry): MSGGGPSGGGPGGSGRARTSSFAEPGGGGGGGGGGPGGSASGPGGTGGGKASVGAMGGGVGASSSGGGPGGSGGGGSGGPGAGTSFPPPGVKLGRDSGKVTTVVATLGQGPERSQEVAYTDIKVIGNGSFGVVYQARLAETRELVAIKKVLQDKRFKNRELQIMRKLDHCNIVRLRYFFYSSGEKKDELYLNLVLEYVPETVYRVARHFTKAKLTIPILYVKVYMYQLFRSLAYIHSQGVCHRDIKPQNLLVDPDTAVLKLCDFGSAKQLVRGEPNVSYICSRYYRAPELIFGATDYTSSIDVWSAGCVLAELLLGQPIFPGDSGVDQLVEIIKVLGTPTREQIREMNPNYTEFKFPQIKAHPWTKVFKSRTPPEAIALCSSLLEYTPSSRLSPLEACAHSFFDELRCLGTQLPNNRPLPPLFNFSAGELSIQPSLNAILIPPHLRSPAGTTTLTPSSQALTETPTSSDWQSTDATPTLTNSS
Sequence of CK1δ(h) (P48730 whole entry): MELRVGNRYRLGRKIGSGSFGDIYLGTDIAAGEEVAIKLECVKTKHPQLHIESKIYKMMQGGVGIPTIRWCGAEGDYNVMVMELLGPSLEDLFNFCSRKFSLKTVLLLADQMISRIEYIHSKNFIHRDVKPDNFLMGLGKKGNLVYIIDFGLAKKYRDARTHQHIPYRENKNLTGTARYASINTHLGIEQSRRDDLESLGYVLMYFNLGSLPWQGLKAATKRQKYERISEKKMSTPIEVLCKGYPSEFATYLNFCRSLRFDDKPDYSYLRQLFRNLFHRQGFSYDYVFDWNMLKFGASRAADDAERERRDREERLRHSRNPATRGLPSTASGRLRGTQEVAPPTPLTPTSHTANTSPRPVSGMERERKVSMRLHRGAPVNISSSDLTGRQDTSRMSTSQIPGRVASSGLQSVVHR
Sequence of PKCδ(h) (Q05655 whole entry): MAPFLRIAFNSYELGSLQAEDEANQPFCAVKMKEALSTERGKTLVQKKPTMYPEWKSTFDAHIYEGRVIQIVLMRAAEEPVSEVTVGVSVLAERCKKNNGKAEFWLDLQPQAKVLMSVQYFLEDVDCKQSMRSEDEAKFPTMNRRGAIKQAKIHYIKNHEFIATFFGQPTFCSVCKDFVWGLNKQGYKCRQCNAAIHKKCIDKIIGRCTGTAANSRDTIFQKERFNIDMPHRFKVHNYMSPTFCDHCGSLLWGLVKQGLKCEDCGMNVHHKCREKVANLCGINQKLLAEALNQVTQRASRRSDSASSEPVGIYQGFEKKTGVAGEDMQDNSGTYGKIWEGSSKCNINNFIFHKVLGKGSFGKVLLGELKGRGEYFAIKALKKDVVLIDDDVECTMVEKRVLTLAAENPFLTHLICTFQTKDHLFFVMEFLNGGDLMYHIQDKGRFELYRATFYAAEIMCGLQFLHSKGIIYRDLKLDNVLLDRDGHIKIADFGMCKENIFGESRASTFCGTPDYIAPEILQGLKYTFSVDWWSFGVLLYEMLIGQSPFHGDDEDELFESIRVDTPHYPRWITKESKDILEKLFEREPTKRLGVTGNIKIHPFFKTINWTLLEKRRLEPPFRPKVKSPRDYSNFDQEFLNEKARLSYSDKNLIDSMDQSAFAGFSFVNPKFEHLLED
T4 sequence (P08069 959-1367 limits assumed): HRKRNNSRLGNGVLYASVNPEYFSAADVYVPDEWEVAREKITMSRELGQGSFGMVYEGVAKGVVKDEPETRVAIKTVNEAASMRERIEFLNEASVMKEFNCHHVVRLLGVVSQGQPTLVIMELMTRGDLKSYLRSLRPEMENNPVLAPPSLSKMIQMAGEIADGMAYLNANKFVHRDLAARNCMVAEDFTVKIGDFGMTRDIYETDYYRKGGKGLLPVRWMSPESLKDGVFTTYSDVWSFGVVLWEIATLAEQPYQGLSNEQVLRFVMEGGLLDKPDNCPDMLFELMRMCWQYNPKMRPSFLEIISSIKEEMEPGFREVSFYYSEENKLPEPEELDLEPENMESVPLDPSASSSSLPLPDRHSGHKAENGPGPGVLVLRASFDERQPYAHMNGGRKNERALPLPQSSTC
T3 sequence (P08631 whole entry): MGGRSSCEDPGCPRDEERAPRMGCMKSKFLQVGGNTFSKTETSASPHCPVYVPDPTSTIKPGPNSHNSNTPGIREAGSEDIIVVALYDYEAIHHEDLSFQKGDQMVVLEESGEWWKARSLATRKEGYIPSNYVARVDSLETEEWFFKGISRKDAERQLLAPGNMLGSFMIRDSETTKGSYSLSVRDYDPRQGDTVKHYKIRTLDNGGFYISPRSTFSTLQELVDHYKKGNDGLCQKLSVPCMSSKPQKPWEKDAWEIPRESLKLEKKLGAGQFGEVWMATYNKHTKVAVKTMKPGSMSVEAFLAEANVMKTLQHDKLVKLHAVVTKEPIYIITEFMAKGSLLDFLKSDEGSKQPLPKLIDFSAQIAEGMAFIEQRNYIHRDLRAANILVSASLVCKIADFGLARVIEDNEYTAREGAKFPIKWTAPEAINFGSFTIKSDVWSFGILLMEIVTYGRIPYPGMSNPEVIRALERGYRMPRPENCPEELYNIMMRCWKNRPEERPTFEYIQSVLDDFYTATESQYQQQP
Sequence of mTOR/FKBP12(h) (P42345 1362-2549 limits assumed): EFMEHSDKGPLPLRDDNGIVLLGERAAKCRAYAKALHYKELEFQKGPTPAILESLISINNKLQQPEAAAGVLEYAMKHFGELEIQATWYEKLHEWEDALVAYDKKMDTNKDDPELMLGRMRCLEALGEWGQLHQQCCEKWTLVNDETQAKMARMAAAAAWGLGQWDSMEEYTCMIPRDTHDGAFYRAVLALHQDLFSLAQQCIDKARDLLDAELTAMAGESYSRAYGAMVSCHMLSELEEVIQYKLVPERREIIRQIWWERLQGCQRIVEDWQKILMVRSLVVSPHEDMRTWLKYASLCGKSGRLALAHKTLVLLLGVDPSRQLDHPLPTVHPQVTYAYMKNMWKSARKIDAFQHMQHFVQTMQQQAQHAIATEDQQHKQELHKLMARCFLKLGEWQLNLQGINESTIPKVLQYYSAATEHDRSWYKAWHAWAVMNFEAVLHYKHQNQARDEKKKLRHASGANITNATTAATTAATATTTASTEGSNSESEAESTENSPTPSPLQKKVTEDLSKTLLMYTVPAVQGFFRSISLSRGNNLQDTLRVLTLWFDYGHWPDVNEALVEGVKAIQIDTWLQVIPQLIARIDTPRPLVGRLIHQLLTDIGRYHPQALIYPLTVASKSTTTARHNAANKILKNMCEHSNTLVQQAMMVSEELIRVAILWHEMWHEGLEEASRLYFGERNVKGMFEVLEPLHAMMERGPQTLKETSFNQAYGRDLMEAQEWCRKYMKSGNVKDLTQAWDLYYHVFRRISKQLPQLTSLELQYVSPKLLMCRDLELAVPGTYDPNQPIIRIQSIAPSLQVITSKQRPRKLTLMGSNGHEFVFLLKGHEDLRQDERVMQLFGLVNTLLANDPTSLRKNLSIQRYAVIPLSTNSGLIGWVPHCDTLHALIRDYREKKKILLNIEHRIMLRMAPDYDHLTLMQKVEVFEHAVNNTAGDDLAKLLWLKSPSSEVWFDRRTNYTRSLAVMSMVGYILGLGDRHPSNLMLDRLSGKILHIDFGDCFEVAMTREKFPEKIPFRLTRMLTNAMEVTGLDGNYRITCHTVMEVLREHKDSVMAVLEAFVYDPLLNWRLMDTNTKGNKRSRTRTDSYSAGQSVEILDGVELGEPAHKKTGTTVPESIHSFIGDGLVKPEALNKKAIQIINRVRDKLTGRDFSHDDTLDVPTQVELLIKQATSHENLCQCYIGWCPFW
T5 sequence (P51617 whole entry): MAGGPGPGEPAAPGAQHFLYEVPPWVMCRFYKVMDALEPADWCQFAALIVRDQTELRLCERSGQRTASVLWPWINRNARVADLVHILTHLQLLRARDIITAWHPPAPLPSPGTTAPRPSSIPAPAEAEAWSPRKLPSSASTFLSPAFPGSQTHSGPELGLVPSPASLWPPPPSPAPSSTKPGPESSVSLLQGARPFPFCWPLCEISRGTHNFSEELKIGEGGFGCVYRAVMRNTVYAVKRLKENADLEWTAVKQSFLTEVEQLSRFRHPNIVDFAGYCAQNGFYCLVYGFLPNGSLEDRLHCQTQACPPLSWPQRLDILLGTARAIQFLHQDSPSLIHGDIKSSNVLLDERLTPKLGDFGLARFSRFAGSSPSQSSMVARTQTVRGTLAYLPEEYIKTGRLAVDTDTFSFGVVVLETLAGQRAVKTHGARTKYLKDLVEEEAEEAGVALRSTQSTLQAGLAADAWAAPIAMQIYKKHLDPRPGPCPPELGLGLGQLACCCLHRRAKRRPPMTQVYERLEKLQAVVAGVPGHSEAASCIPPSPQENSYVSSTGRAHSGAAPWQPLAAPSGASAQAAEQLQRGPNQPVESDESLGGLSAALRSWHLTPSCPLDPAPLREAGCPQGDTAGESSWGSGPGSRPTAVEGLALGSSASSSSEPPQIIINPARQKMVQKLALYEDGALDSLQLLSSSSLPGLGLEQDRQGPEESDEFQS
Sequence of SAPK2a(T106M)(h) (Q16539 whole entry T106M): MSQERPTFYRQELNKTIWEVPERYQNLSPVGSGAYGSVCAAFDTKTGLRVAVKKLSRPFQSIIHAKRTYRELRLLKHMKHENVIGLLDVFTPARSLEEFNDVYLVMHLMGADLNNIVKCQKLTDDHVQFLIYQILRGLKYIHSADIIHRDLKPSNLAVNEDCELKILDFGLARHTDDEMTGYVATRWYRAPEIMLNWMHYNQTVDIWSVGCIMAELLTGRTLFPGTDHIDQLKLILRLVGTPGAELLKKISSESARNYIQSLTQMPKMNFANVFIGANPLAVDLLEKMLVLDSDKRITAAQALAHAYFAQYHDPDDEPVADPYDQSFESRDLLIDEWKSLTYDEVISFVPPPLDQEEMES

On to FAKLAARLYRKALARQLGVAA [MMI-0300], for which the “ARK5(h) % activity” value in assay [1] was determined as 78%. Besides, the “CDK2/cyclinA(h) % activity” value in assay [2] amounted to 86%. For the same sequence, in assay [3], the “CK1δ(h) % activity” value is 92%. Further, in [4], the “EGFR(T790M,L858R)(h) % activity” value is recorded as 85%. For the same sequence, in assay [5], the “FGFR2(h) % activity” value was determined as 14%. Also, the “Flt1(h) % activity” value in assay [6] is 69%. In addition, the “GSK3α(h) % activity” value in assay [7] is 157%. Also, the “Hck(h) % activity” value in [8] was 72%. Besides, in assay [9], the “IGF-1R(h), activated % activity” value amounted to 80%. For the same sequence, the “IRAK1(h) % activity” value in [10] was determined as 95%. Moreover, the “JNK2α2(h) % activity” value in assay [11] stood at 98%. Also, the “PKCδ(h) % activity” value in assay [12] was 101%. The “Ret(h) % activity” value in assay [13] was 140%. Also, the “SAPK2a(T106M)(h) % activity” value in assay [14] is 97%. The “SRPK1(h) % activity” value in assay [15] worked out at 90%. Moreover, in [16], the “TrkA(h) % activity” value amounted to 25%. Also, the “mTOR/FKBP12(h) % activity” value in assay [17] stood at 145%.

As for KAFAKLAARLYRKALARQLGVAA [MMI-0400], in assay [1], the “ARK5(h) % activity” value is on record as 69%. Also, the “Bmx(h) % activity” value in assay [18] was 26%. In [2], the “CDK2/cyclinA(h) % activity” value turned out to be 92%. Also, the “CK1δ(h) % activity” value in [3] amounted to 93%. Besides, the “EGFR(T790M,L858R)(h) % activity” value in [4] worked out at 78%. In assay [5], the “FGFR2(h) % activity” value was determined as 18%. For the same sequence, in [6], the “Flt1(h) % activity” value worked out at 48%. In assay [7], the “GSK3α(h) % activity” value is 164%. Also, the “Hck(h) % activity” value in assay [8] was 72%. Moreover, the “IGF-1R(h), activated % activity” value in assay [9] worked out at 77%. In addition, the “IRAK1(h) % activity” value in assay [10] is listed as 93%. Besides, the “JNK2α2(h) % activity” value in assay [11] amounted to 96%. Further, the “PKCδ(h) % activity” value in assay [12] came to 90%. Besides, the “Ret(h) % activity” value in assay [13] stood at 145%. In addition, in assay [14], the “SAPK2a(T106M)(h) % activity” value worked out at 99%. Moreover, the “SRPK1(h) % activity” value in assay [15] is on record as 96%. Also, in assay [16], the “TrkA(h) % activity” value is listed as 17%. Moreover, in assay [17], the “mTOR/FKBP12(h) % activity” value is 125%.

Turning to “HRRIKAWLKKIKALARQLGVAA (Mammalian) [MMI-0500]”, the “ARK5(h) % activity” value in assay [1] is reported as 20%. The “Bmx(h) % activity” value in assay [18] turned out to be 45%. Also, the “CDK2/cyclinA(h) % activity” value in assay [2] is listed as 87%. The “CK1δ(h) % activity” value in assay [3] is on record as 78%. In addition, the “EGFR(T790M,L858R)(h) % activity” value in assay [4] is recorded as 53%. In [5], the “FGFR2(h) % activity” value is 12%. In addition, the “Flt1(h) % activity” value in assay [6] was determined as 27%. For the same sequence, the “GSK3α(h) % activity” value in [7] came to 175%. For the same sequence, the “Hck(h) % activity” value in assay [8] is given as 78%. In [9], the “IGF-1R(h), activated % activity” value is recorded as 45%. For the same sequence, the “IRAK1(h) % activity” value in assay [10] is 5%. Moreover, the “JNK2α2(h) % activity” value in assay [11] came to 81%. Moreover, the “PKCδ(h) % activity” value in assay [12] was found to be 61%. For the same sequence, the “Ret(h) % activity” value in assay [13] is given as 174%. Also, the “SAPK2a(T106M)(h) % activity” value in [14] amounted to 32%. The “SRPK1(h) % activity” value in assay [15] is given as 80%. The “TrkA(h) % activity” value in assay [16] is given as 24%. Further, the “mTOR/FKBP12(h) % activity” value in assay [17] is listed as 140%.

With “YARAAARQARAKALNRQLGVA (Mammalian) [MMI-0200]”, in assay [1], the “ARK5(h) % activity” value worked out at 93%. Besides, in [18], the “Bmx(h) % activity” value turned out to be 76%. For the same sequence, the “CK1δ(h) % activity” value in assay [3] was determined as 92%. Moreover, in assay [4], the “EGFR(T790M,L858R)(h) % activity” value is reported as 108%. For the same sequence, the “FGFR2(h) % activity” value in assay [5] was 73%. Further, in assay [6], the “Flt1(h) % activity” value came to 96%. Also, the “IGF-1R(h), activated % activity” value in assay [9] worked out at 94%. Moreover, the “IRAK1(h) % activity” value in [10] was determined as 101%. The “PKCδ(h) % activity” value in assay [12] was found to be 101%. In addition, the “Ret(h) % activity” value in [13] is 96%. In addition, in [14], the “SAPK2a(T106M)(h) % activity” value came out at 100%. Besides, in assay [15], the “SRPK1(h) % activity” value was 93%. In [17], the “mTOR/FKBP12(h) % activity” value worked out at 118%.

For the origin of these results see patent US10562947B2, “Compositions and methods for preventing or treating diseases, conditions or processes characterized by aberrant fibroblast proliferation and extracellular matrix deposition” (MOERAE MATRIX, INC., priority 2011, dated 2020).
